Measured values reported in a protein production outcome set (Wang et al. 2014).

assay: label from the status in PepcDB records

Sequence | protein production
MQKSDALALDGSAALAEPVPATEIARGIAVLAAPTSLVAFLQAGAQLIETWLAARQGTASLAGWAVVLPFALLLQQMSTGAMGGGVVSAIARALGGGKREEASSLVLHALIIAVTAGLIFAIVLAGFPRSVFGAVAGATAAEAAASYAIWLFGAGAVPAWLANTLASVLRGGGRHALAARVLGGMWVVFPVLSWWLAERVGMGLAGIGAALAAVSWGAALVMAYVVFRGGAGFVPSLRIRPSKALFYRILSIGLVACALASVANLTTILVTAQLRHYGTTTVAAYGISARLEFLMIPLAFGVGSALTALVGRAVGAGDWHTARRTAWVGALLALLIAGTVGAAVGLAPNQFAGLFTQDPNVGAIAARALSWVGPAFGGFGLGMALYFASMGAGRMRWPIAAGLCRIALAAGGGWLLANVAGMGLDGHFLGVALGITSYGLVTAIGVRKGEWSPRH | failed
MQLSAPPYEERLTAPRTWWLMCFLVGVSMALILLPFGTLPLLGGLVGGTAVAAVVASSYGSIRIRVVGDSLIAGEAKIPVAALGEAEIMDQEEARAWRTYKANPRAFMLLRSYIPTALRVEVTDPQDPTPYLYLSTREPERLAAALKAARTEA | failed
MQLSIEEVKKLDSNSYQIIDIRSEEEVAHGAIKGALNIQAEEIESDERVPHDKKLVIVCSRGKTSVDVAEYLTEKGFDAASLKGGYISWLLDAMKEDEVAERDIKADVEQSIRKKFKKSIWRKFTKAINTYELVKPGDKIAVCISGGKDSMLMAKLFQELKHHNKFDFDVKFLVMDPGYNEANRHVIEENCRNLGIPATIFESDIFDAVYDIEKSPCYLCARMRRGHLYAFAKELGCNKIALGHHYDDVIETILMGMLYGAQVQTMMPKLHSTNFEGMELIRPLYLVREDDIKAWRDYNGLHFIQCACKFTDTCTTCNNEENRSKRVEIKQLIANLKKVNPFVEANIFKSVENVNLATVVAYKKDGIKHSFLDHYDE | failed
MQMAGFGLIAKLRNKIRVKPNNKIQIGKNTRIRYCDIYVNGNNNQLIIHNGANLKGVSIELNGNNCLLEIGENCVIGENCFLSCRESGTKLVIGKECMFSRNVKLMTSDGHDILRDGKRINPAKSIYIGSHVWLADNVTILKGVDIGSGSIIGINSTVTKSIGQYCIAAGNPARKIKDNISWNTTLSY | failed
MQMMEQFYPKVSIVIPVYNGSDYMREAIDSALGQTYGNIEVIVVNDGSSDGGLTHEIALSYGGNIRYFAKENGGVASALNFAIRMMDGEYFSWLSHDDIYYPNKIETQIGYLAEHDRNAILYSDFELIDCLSKVIKPVNAGEIPPEQFLYNLITIGHLNGCTLLVPKRCFEETGFFDESLRSTQDYALWFTFAQKYRFEQIRKVLVKYRTHSNQGSYVIPTHSQEVNDLHIWFLEEASERGLLPIPDEGASRFFLEVAGIYKKRGIYRAADYSCSMALRHMRDEGGLALLRELPRVAYLKYYFRKKQFKSYLRELRRSTVRRSLLEHHHHHH | not failed
MQNELQKYDDTINIAFFGLDRRQKTDISRSDSIMILTMDPTHKKLKLSSIMRDTYVNVDGHGMTKITHAYAYGGPQLAIKTINENFNLNIKDYVTVDFYGLEKIIDKLNGVEVDVQPDEVNYLNSYIDEVSKYEKVTPNHVSSAGKQLLDGRQAVAYSRIRYTAGGDFQRTERQRTVLMAVFNKMKAQGKSNMLSMMDELLPYAETDLGSLDIAKYGAKFLSSNIDSIDQERFPVDGYCSGITVDNVWYLKTDLGVTSDQMKKYIFEDVKPTPKASLVNIPAKLEHHHHHH | not failed
MQNTIIQKAVNKDLNSILEITKDALNAMKTMNFHQWDENYPNEIVFQEDIQAQELYVFKENDEILGFICINEKFKPEFYKQVIFNKNYDDKAFYLHRLAVKQNAKGKGVAQKLLNFCENFALENHKASLRADTHSKNFPMNSLFKKLDFNFCGNFDIPNYQ | failed
MQNTIIQKAVNKDLNSILEITKDALNAMKTMNFHQWDENYPNEIVFQEDIQAQELYVFKENDEILGFICINEKFKPEFYKQVIFNKNYDDKAFYLHRLAVKQNAKGKGVAQKLLNFCENFALENHKASLRADTHSKNFPMNSLFKKLDFNFCGNFDIPNYQDPFLAYEKILNQKAF | not failed
MQNTKLYSLTLIALGAAIIAVLSPLSIPIGIVPVTLQTLAVGLVATVLKARETFFAILLYLLLGFIGIPVFTGGTSGIAVLFGPTGGFLIAFLIMGTLISFGLHQINYKTIPAFIINIVGHLLMLVIGTLWLKFFTNVDWSLALKLGFTPFVIVEIIKAVLVTIFGLALIRALSHTNKYFTN | failed
MQPQNIFDNEVFFQGYKKLRENPNSANILEEKPAIFSLLPELTGKKVLDLGCGYGENCNMFSKMGANKVVGIDVSSKMLAIANNDNSGDNIFYENMCMEDIFCINEKFDVVVSSLAVHYINDFNKLVCNVNSLLKDNGIFVFSQEHPLTTAPKNGARWFKNVDGRIAHYVLTDYATSGERTVSWIVDGITKYHRTFSDIVNALIDAGFIIEKMLEPVPTKEIIERDPSSAKDLHKPNFLVTRARKK | failed
MQPTTRLSFSQRHPFIFGFLLIMVAVALFTGATATFRHLTDAGSFGGPRIGIVRIEGMIGDVRKTLEWMRKLAEDRTVRGVLVRVDSPGGAVAPSQELHDAVKRLAADKPVVVSMGSLAASGGLMVSTGATRIVANPATITGSIGVKMEMPNVQGLMDKIGVARQTLVSGDLKDAGSPFRAMSEAERAYFQSIIMEMYGQFVSMIAEDRNIPVEKVRSFADGRILTGSQALELGLVDKLGSEAAAMDVLLALVDLKGEKPVFIEPPKERSWVREVLESALGIAPPQNMGQPAFLYY | failed
MQQALAFVARHGRLGLMVGLGAGLALPGLAAVMRPWIPQLVALLLFLTAFRIGPVDAAGSLADLTRTARRVLVLQLALPILFLLGLRLLGLPVTPLALVLALVLAAPSVTGSANFTILLAQDPAPALRLLILGTALLPLTAIPVFWLLPAFGDPAEVFGAALRLLGVILLAAGCGFALRHWGARQLSDLNRRAMDGLTVIALAVIVIALMSAVRPAMTERPAELAFWLLAAFAINLGGQTLCYLTLRATGGADPVPTSIVAGNRNFALFFVALPSEVTEPLLIFLGCYQFPMYLTPTLMRRLYDPV | failed
MQRGSRQLYLGDPATDKLQVPEMPMQVLTAFVPGMEVAISAISSYLSTKKMSEGGAGPLLQKRRPNTRKLWSEGRVQPRPFCVLSGLAPPRSRPGPWGPFKAASWPAGTCFAPSDAAEVAASPLRRRGDCWEGRRDGGSETSSRSRIRVKRDRSKSQSRTKAEGAGRRGPVGPGDPVRPDGEKRLQARRPPAPPLASTDRKTMATMVLPREEKLSQDEIVLGTKAVIQGLETLRGEHRALLAPLASHEAGEAEPGSQERCLLLRRSLEAIELGLGEAQVILALSSHLGAVESEKQKLRAQVRRLVQENQWLREELAGTQQKLQRSEQAVAQLEEEKQHLLFMSQIRKLDEDASPNEEKGDVPKDSLDDLFPNEDEQSPAPSPGGGDVAAQHGGYEIPARLRTLHNLVIQYASQGRYEVAVPLCKQALEDLEKTSGHDHPDVATMLNILALVYRDQNKYKDAAHLLNDALAIREKTLGKDHPAVAATLNNLAVLYGKRGKYKEAEPLCKRALEIREKVLGKFHPDVAKQLSNLALLCQNQGKAEEVEYYYRRALEIYATRLGPDDPNVAKTKNNLASCYLKQGKYQDAETLYKEILTRAHEKEFGSVNGENKPIWMHAEEREESKDKRRDSAPYGEYGSWYKACKVDSPTVNTTLRSLGALYRRQGKLEAAHTLEDCASRSRKQGLDPASQTKVVELLKDGSGGRGDRRGSRDVAGGAGPRSESDLEESGPAAEWSGDGSGSLRRSGSFGKLRDALRRSSEMLVRKLQGGGPQEPPNSRMKRASSLNFLNKSVEEPVQPGGTGLSDSRTLSSSSMDLSRRSSLVG | failed
MQRIMVIGGPGSGKSTLGRKLGARLGLPVVHMDPIYWLGDWVERDKAEAMRMAKEVADGSQWVFEGNHFASMAYRAERADLIVFLDMPRVLRMWRILWRSLRYYGRTRPDMGPNCPERFNRAFLKFCWTYDREGRLRALGFVDDWRDRRRVRILTSRRQVAAFLVEIDRQLEHHHHHH | failed
